Assay results: PMC10774353, “Multi-scale structures of the mammalian radial spoke and divergence of axonemal complexes in ependymal cilia” (Nature Communications, 2024)

T1: Rsph4a (mouse, UniProt Q8BYM7 1-716)
T1 construct: Rsph4a (radial spoke head protein 4 homolog A), mouse, NM_001162957; Two copies stand in each RS head
T1 sequence: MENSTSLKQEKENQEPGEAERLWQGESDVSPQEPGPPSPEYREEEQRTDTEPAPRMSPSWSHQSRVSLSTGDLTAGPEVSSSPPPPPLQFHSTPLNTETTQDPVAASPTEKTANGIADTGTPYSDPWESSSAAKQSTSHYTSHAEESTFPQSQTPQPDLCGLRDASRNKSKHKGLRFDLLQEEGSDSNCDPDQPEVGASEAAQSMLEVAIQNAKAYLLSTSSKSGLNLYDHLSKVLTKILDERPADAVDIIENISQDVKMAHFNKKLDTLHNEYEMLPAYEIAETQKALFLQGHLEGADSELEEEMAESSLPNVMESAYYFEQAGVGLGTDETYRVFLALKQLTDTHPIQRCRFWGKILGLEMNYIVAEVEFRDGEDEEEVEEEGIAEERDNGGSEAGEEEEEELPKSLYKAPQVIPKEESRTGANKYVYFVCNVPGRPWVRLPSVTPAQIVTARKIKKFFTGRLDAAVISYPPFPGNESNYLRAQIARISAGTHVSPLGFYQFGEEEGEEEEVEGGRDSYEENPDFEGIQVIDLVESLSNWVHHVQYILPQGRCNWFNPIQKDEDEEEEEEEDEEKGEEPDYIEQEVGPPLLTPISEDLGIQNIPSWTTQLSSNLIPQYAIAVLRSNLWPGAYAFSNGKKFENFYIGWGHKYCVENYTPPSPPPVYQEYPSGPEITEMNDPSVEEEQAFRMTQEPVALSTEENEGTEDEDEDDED

B1: FLAG-tagged Rsph16 (natural protein, mouse, UniProt Q80Y75 1-316, looked up)
chain: MGLDYYAVLQVTRNSEDAQIKKAYRKLALKNHPLKSSEPGAPEIFKQIAEAYDVLSDPVKRGIYDKFGEEGLKGGIPLEFGSQTPWTTGYVFHGNPDKVFHEFFGGDNPFSEFFDAEGNDIDLNFGGLWGRGVQKQDPPIERDLYLSLEDLFFGCTKKIKISRRVLNEDRYSSTIKDKILTIDVRPGWRQGTRITFEKEGDQGPNIIPADIIFIVKEKLHPRFRREHDNLFFVYPIPLGKALTCCTVEVKTLDDRLLNIPINDIVHPKYFKIVPGEGMPLPENPSKKGDLFIFFDIQFPTRLTPQKKQMLRQALLT
notes: Rsph16 (homologue of HSP40, DnaJ family), mouse, NM_153527; full-length gene amplified from cDNAs of mouse ependymal cells, in pcDNA3.4; Stands as a homodimer (the arch bridge Rsph16-Rsph16') in both the head-neck monomer and the head-neck dimer; not shown: 3xFLAG, N-terminal, kept
B2: Rsph3b (natural protein, mouse)
chain: MTDRNPRTAEASGLYTYSSRPRAVACQRRRHRDSILQPVEEPMSYGNIMYDRRVIRGNTYALPTGQVPGQPDPLELQRQQQARRRALARKRAQEQLKPRTPEPVEGRKHVDIQTELYLEEIADRIVEVDMECQTDAFLDRPPTPLFIPAKTGKDVATQILGGELFDFDLEVKPMLEVLVGKTIEQSLLEVMEEEELANLRARQYAYEEIRNVELAEVQRLEEQERRHREEKERRKKQQWEIVHKRNETLQKISALIFARQYLANLLPSVFDKLRNSGFFYDPIERDIEVGFLPWLMNEVEKSMEHSMVGRTVLDMLIRDVVERRINDYEHKEAMPPGQKTNVINGPNTVTDPSVTTLHTQKPVLDRVSSQPAPSQERKPVEEGGHLMAE
notes: Rsph3b (radial spoke head protein 3 homolog B), mouse, NM_001083945; non-tagged, in pcDNA3.4; Non-tagged

Experiments:
Assay in all cases: cryo-EM structure; RS head-neck complex co-expressed in HEK293F, purified by Strep-Tactin then anti-FLAG beads, cross-linked by GraFix (0-0.1% glutaraldehyde, 10-40% glycerol, 4 °C); monomer map 3.28 Å, dimer map 3.57 Å
[1] = target: the molecule itself
FLAG-tagged Rsph16 = target: B1; conditions: both partners purified
Rsph3b = target: B2; conditions: both partners purified
Rsph4a = target: T1, Rsph4a; conditions: both partners purified

| binding result (FLAG-tagged Rsph16) | binding result (Rsph3b) | binding result (Rsph4a) | Binder | stoichiometry N [1] |
| --- | --- | --- | --- | --- |
|  |  |  | B1 | 2 |
| binds | binds |  | Rsph23 (natural protein, mouse, Rsph23, mouse, NM_080637) MEVSMPLPQIYVEKTLALIKPDVVDKEEEIQDIILGSGFTIIQRRKLHLSPEHCSNFYVEQYGKMFFPNLTAYMSSGPLVAMILARHKAISYWKELMGPSNSLVAKETHPDSLRAIYGTDELRNALHGSNDFAASEREIRFMFPAVIIEPIPIGQAAKDYINLYVAPTLLQGLTELCKEKPPDPYLWLADWLMKNNPNKPKLCHFPVTEEP |  |
|  |  | binds | B2 |  |
| binds |  | binds | Rsph9 (natural protein, mouse, Rsph9 (radial spoke head protein 9 homolog), mouse, NM_029338; non-tagged, in pcDNA3.4; Two copies stand in each RS head; Non-tagged) MDADSLLLSLELASGSGQGLSPDRRASLLTSLMLVKRDYRFARVLFWGRILGLVADYYIAQGLSEDQLAPRKTLYSLNCTEWSLLPPATEEMAMQISVVSGRFMGDPSHEYEHTELQKVNEGEKVFDEEVVVQIKEETRLVSIIDQIDKAVAIIPRGALFKTPFGVTHVNRTFEGLPLSEVRKLSSYFHFREAIDLKNKTLLEKSDLEPSLDFLDSLEYDIPRGSWSIQMERGNALVVLRSLLWPGLTFYHAPRTKNYGYIYVGTGEKNMDLPFML |  |
